± gives the standard deviation of the averaged measurements.
system: ATP; assay: switch fluorescence ratio, 500 uM ATP over buffer (Cy3 cluster intensity, sum of 5 cycles each) (fold (ratio)); higher = stronger signal-on switching upon ATP binding; sequences stand for … in TCGTCGGCAGCGTCAGATGTGTATAAGAGACAGTTTTTTTTTTTTTTTTTTTTTTTTT…TC; conditions: aptamer strand: ATP DNA aptamer (quencher-CACCTGGGGGAGTATTGCGGAGGAAGG + anchor), 100 nM annealed; ATP concentration: 500 uM
In short: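 Between each of five buffer/ATP cycles, the flow-cell was stripped with NaOH and re-annealed. Each cycle imaged Cy3-labelled switching-strand clusters, annealed to 100 nM quencher-labelled ATP aptamer on a modified Illumina MiSeq flow-cell, first in selection buffer and then after 15 min with 500 uM ATP at 22 °C. The fluorescence ratio is summed target-cycle over summed buffer-cycle Cy3 intensity per cluster, averaged per switch-domain sequence, with clusters outside 100-1000 RFU excluded.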
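Note: ATP exposure 15 min at 22 °C before imaging.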

Sequence | switch fluorescence ratio
GGAGTGCTGG | 0.995 ± 0.032
TATTGGTGGT | 0.995 ± 0.027
GTAACCCCGG | 1.07 ± 0.025
GCGCCCTGTG | 1.122 ± 0.0062
TTTTTATACT | 1.02 ± 0.027
TGTTAGGTAG | 1.01 ± 0.011
CAGTTGCCAG | 0.953 ± 0.019
TAGCCTAATG | 1.0049 ± 0.00065
CCCTGGACGA | 1.07 ± 0.016
ATCGGTAGGT | 0.99 ± 0.019
TCGAGCCTTT | 0.9909 ± 0.0014
TAATAAATCA | 1 ± 0.036
ATGTGTTAGC | 0.999 ± 0.058
ATTCTGGGAT | 1.013 ± 0.0027
CATGTATTGA | 0.964 ± 0.024
TTATAATACT | 1.04 ± 0.019
AAGGGGGGCG | 1.02 ± 0.037
TCCTGTGAAC | 1.04 ± 0.046
GAGGTTTTAT | 0.987 ± 0.054
AACCGTGGCG | 1.07 ± 0.041
GGGACCTTGT | 1.01 ± 0.064
GCCAAGTTCG | 0.9787 ± 0.0072
CTTGGTAGGG | 1.03 ± 0.051
TGAGGTACCG | 1.0235 ± 0.00091
TAGTTATTAC | 1.08 ± 0.14

Sequence | switch fluorescence ratio
TTTATGTCCG | 1.04 ± 0.042
TATATATAGA | 1 ± 0.041
CTCTAGTGGC | 1.1 ± 0.074
TTCGAGTGCC | 0.991 ± 0.013
CGGGGGGTCA | 1.01 ± 0.018
TTTTCATCAT | 1.01 ± 0.031
TGCCGAGATC | 1 ± 0.013
CGCAGAGGCT | 1.06 ± 0.044
GGCCGTGAGG | 1.01 ± 0.0098
AGAGGAATTT | 1.01 ± 0.02
CTAAGTAGAT | 1.02 ± 0.028
ATGATCTGCT | 0.946 ± 0.03
TGTCTCTGTC | 1.01 ± 0.021
AGCACTGCTG | 1.01 ± 0.014
TAGGTGACTG | 0.982 ± 0.037
GTGTATCGGT | 0.994 ± 0.023
ATTCTGTGTG | 0.9648 ± 0.0023
CTTGGTTGCG | 0.999 ± 0.014
CGACACCGTG | 1.025 ± 0.0013
ATAGAAGGGG | 1.08 ± 0.14
CAAAGTTAAC | 0.949 ± 0.0098
CAGGAAGCGG | 1.025 ± 0.0027
TACGTTCCTG | 1.03 ± 0.028
ACTGGGGTTA | 0.9786 ± 0.0021
TATTAGGTGG | 1.1 ± 0.059

Sequence | switch fluorescence ratio
CGAAGGAATC | 1.78 ± 1.1
ACTATCTATT | 0.997 ± 0.034
CTGCTAGCGG | 1.02 ± 0.065
CGGATCGATT | 0.9907 ± 0.0018
GAGGCGCTTA | 0.961 ± 0.011
AGTAGCAAAT | 1.2 ± 0.13
ACGCGACGGA | 1.07 ± 0.079
TGGGGTTAAG | 0.977 ± 0.025
AGTCAGGGGG | 1 ± 0.028
ATAGATGAGG | 1.007 ± 0.0046
TTTTCGAAGG | 1.005 ± 0.0028
GGTTGTGACG | 1 ± 0.08
AGTCGAGCTA | 0.986 ± 0.021
CATTTTTGTT | 0.979 ± 0.031
GTTGGGTTAT | 0.982 ± 0.017
TTGTTATGTG | 0.955 ± 0.024
CTGATCAGTT | 1.02 ± 0.017
AATTTGGTAA | 0.999 ± 0.019
TTGCCCCGGC | 1.04 ± 0.016
AGTTTCTGAG | 1.01 ± 0.056
TTGAGGCAGT | 1.54 ± 0.55
AATAGGATCG | 1.01 ± 0.045
AATGTGTACT | 1.03 ± 0.032
TTTTCTACTT | 0.999 ± 0.027
CTGTTTATTT | 1.36 ± 0.54

Sequence | switch fluorescence ratio
GGTATACTGA | 1.05 ± 0.049
TTAGCTGTAG | 1.09 ± 0.11
AATGGATGGG | 0.999 ± 0.011
TAGGGTTCTT | 1.03 ± 0.029
TTGCGATTTT | 0.993 ± 0.028
ATATTTGGGG | 1.02 ± 0.046
GACTAACGGA | 1.19 ± 0.1
GTTGTGTCTT | 0.991 ± 0.041
ATGGGGGTTT | 0.984 ± 0.042
GGAGAGGGCG | 0.991 ± 0.066
GTGTAGAAAT | 0.9834 ± 0.0068
TTTTACAAAA | 0.981 ± 0.02
TGGGGTAGCC | 0.932 ± 0.029
TAGTTAGGCG | 0.959 ± 0.028
TGGGGGTGTG | 1.04 ± 0.082
AAAGAGGCTT | 0.983 ± 0.039
CCGGAGAGGT | 2.28 ± 0.23
CCGAGTAGAG | 1.4 ± 0.067
GAGAAGGGAC | 1.03 ± 0.046
CAGCAGATTA | 1.04 ± 0.018
GCGGTGGACG | 0.947 ± 0.077
TGGAGGGCTA | 0.97 ± 0.032
CTGGGTGCAT | 1.14 ± 0.032
AATTATAGTT | 0.99268 ± 5.5e-05
TTTTTACATT | 0.99 ± 0.032

Source: the supplement of paper PMC10126150
